The text below walks through data of patent US20250074994A1 (Molecular Partners, published 2025).

Residue numbers refer to the chain shown, from its start.

The chains are these.
T1: human CD70 expressed on Molm-13 tumor cells (human, UniProt P32970 1-193)
T1 sequence (looked up): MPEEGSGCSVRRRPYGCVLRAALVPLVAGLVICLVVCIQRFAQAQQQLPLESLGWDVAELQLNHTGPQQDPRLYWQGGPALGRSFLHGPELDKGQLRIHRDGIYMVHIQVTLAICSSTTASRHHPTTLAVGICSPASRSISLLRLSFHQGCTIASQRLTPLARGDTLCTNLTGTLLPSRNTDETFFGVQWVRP

T2: biotinylated recombinant human CD70 (extracellular domain, Fc tag) (human, UniProt P32970 52-193, chemically biotinylated using 5-fold excess of Biotin)
T2 construct: Bought from ACROBiosystems; also called bio.hCD70; Bio.CD70; not shown: C-terminal Fc Tag of the bought protein (ACROBiosystems)
T2 sequence: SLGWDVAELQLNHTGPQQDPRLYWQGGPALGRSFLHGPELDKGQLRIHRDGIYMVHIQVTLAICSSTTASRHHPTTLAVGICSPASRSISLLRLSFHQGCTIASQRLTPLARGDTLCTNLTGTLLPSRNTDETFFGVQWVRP

B1: DARPin® protein #26 (designed binder)
chain: MRGSHHHHHHGSDLGIKLLTAAYDGQLDEVRILLKAGADVNAKDLRGQTPLHYAAGLGHLEIVEVLLKAGADVNAKDLHGWTPLHLAAWSGHLEIVEVLLKAGADVNAQDVEGVTPADLAAVQGHQDIAEVLQKAAGSPTPTPTTPTPTPTTPTPTPTGSDLGQKLLEAAWAGQDDEVRELLKAGADVNAKNSRGWTPLHTAAQTGHLEIFEVLLKAGADVNAKNDKRVTPLHLAAALGHLEIVEVLLKAGADVNARDSWGTTPADLAAKYGHQDIAEVLQKAA
B2: DARPin® protein #27 (designed binder)
chain: MRGSHHHHHHGSDLGKKLLQAARAGQLDEVRELLKAGADVNAKDQQGLTPLHIAANLGHLEIVEVLLKAGADVNAKDLFGLTPLHLAAFEGHLEIVEVLLKAGADVNAKDQHGATPLHLAAWVGHLEIVEVLLKAGADVNAQDKSGKTPADLAARAGHQDIAEVLQKAAGSPTPTPTTPTPTPTTPTPTPTGSDLGQKLLEAAWAGQDDEVRELLKAGADVNAKNSRGWTPLHTAAQTGHLEIFEVLLKAGADVNAKNDKRVTPLHLAAALGHLEIVEVLLKAGADVNARDSWGTTPADLAAKYGHQDIAEVLQKAA
B3: DARPin® protein #12 (designed binder)
chain: MRGSHHHHHHGSDLGKKLLQAARAGQLDEVRELLKAGADVNAKDQTGYTPLHLAARHGHLEIVEVLLKAGADVNAKDEYGWTPLHIAAFIGPLEIVEVLLKAGADVNAKDEQGATPLHLAAWQGHLEIVEVLLKAGADVNAQDKSGKTPADLAARAGHQDIAEVLQKAA
B4: DARPin® protein #6 (designed binder)
chain: MRGSHHHHHHGSDLGKKLLEAARAGQDDEVRILLAAGTDVNAKDARGSTPLHVAAIHGHLEIVEVLLKAGADVNAKDTWGWTPLHLAAYAGHLEIVEVLLKAGADVNAQDEEGQTPADLAAFHGHEDIAEVLQKAA
B5: DARPin® protein #7 (designed binder)
chain: MRGSHHHHHHGSDLGAKLLNAATVGQDDEVRILLAAGADVNAKDWSGQTPLHHAAYTGHLEIVEVLLKAGADVNAKDSWGWTPLHLAAYTGHLEIVEVLLKAGADVNAQDKEGSTPADLAAFHGHEDIAEVLQKAA
B6: DARPin® protein #3 (designed binder)
chain: MRGSHHHHHHGSDLGQKLLHAAQVGQDDEVRILLAAGADVNAKDTRGITPLHDTAFYGHLEIVEVLLKAGADVNAKDVTGWTPLHLAAYTGHLEIVEVLLKAGADVNAQDNEGITPADLAAFHGHEDIAEVLQKAA
B7: DARPin® protein #2 (designed binder)
chain: MRGSHHHHHHGSDLGYKLLQAAYDGQLDEVRILLKAGADVNAKDSRGQTPLHYAASIGHLEIVEVLLKAGADVNAKDDHGWTPLHLAAWSGHLEIVEVLLKAGADVNAQDQEGTTPADLAAVQGHQDIAEVLQKAA
notes: Parent of DARPin protein #24
B8: DARPin® protein #8 (designed binder)
chain: MRGSHHHHHHGSDLGHKLLFAAVRGQDDEVRILLAAGADVNAKDTRGVTPLHLAASWGHLEIVEVLLKAGADVNAKDELGNTPLHLAATDGHLEIVEVLLKAGADVNAQDWVGKTPADLAAWWGHEDIAEVLQKAA
B9: DARPin® protein #11 (designed binder)
chain: MRGSHHHHHHGSDLGIKLLYAAYFGQDDEVRILLAAGADVNAKDWLGKTPLHLAATEGHLEIVEVLLKAGADVNAKDEWGETPLHKAAQEGHLEIVEVLLKAGADVNAQDSAGYTPADLAAQVGHEDIAEVLQKAA
B10: DARPin® protein #5 (designed binder)
chain: MRGSHHHHHHGSDLGFKLLQAALRGQLDEVRILLKAGADVNAKDQLGTTPLHLAAHYGHLEIVEVLLKAGADVNAKDVWGDTPLHLAAQHGHLEIVEVLLKAGADVNAQDRAGYTPADLAAQEGHEDIAEVLQKAA
B11: DARPin® protein #10 (designed binder)
chain: MRGSHHHHHHGSDLGFKLLNAAVQGQDDEVRILLAAGADVNAKDLRGTTPLHLAAQFGHLEIVEVLLKAGADVNAKDVWGATPLHLAAEHGHLEIVEVLLKAGADVNAQDNAGKTPADLAAQDGHEDIAEVLQKAA
B12: DARPin® protein #9 (designed binder)
chain: MRGSHHHHHHGSDLGKKLLQAARAGQLDEVRELLKAGADVNAKDQAGLTPLHIAAATGHLEIVEVLLKAGADVNAKDFSGLTPLHLAAFEGHLEIVEVLLKAGADVNAKDQHGQTPLHLAAWTGHLEIVEVLLKAGADVNAQDKSGKTPADLAARAGHQDIAEVLQKAA
notes: Parent of DARPin protein #25
B13: DARPin® protein #24 (designed binder)
chain: B7 chain with Y16I, Q20T, S45L, S56G, I57L, D78L, Q111V, T114V
notes: expressed as monovalent designed ankyrin repeat protein with N-terminal His-tag
B14: DARPin® protein #25 (designed binder)
chain: B12 chain with A46Q, A56N, T57L, F78L, S79F, Q114A, T123V
notes: as for B13
B15: DARPin® protein #1 (designed binder)
chain: B7 chain with L27D, K35A, G124S, Q126E

The first test has as its target T1, human CD70 expressed on Molm-13 tumor …. The experiment in a line: cell-based or functional assay.
Regarding B1, the “EC50 of in vitro T-cell activation and tumor cell killing (Molm-13-N1 target cells), improvement over the parental binding protein” value was roughly 7 fold. With B2, the “EC50 of in vitro T-cell activation and tumor cell killing (Molm-13-N1 target cells), improvement over the parental binding protein” value is roughly 31 fold.

In a further test the target is T2, biotinylated recombinant human CD70 …. Put plainly: SPR (ProteOn XPR36), bio.CD70 immobilized on NLC chip, DARPin as analyte. The method, then:
The binding affinities of purified ankyrin repeat proteins on recombinant human CD70 target were analyzed using a ProteOn XPR36 instrument (BioRad) and the measurement was performed according standard procedures known to the person skilled in the art.
Bio.CD70 was immobilized on a NLC chip and the ankyrin repeat proteins were applied as titration with a starting concentration of 100 nM and then titrated down to 1.2 nM. The signals were double referenced against the PBST-treated control lane of L1 and A6. Analyte injection was performed for 120 s followed by a dissociation for 1500 s.
Turning to B3, the Kd is 28 nM. In the case of B4, the Kd was determined as 43 nM.

Regarding B5, the Kd is 5.7 nM.

As to B6, the Kd was 3.1 nM. The same measure, in the same setting: the result for B7 reads 0.45 nM; that for B8, 1.1 nM. Still for that read-out and setting: then B9, with 3 nM. In the case of B10, the Kd amounted to 5.8 nM. Still for that read-out and setting: then B11, with 16 nM; and B12, with 27 nM.

The target is the same in another test. Put plainly: SPR, bio.hCD70 on neutravidin-coated GLC chip, DARPin as analyte, 1:1 Langmuir fit. Here is the method: Moreover, the binding affinities of two additional purified ankyrin repeat proteins on recombinant human CD70 target were measured and analyzed with a procedure as described above for DARPin proteins #2, #3, #5 to #12. Briefly, neutravidin was precoated on a GLC chip (BioRad) to a level of 5300 RU. In a second step, bio.hCD70 was immobilized to a level of 510 RU. The binding of DARPin protein #24 and DARPin protein #25 to bio.hCD70 was measured by Injecting the DARPin® molecule in a serial dilution of […]. For all described measurements, an association of 120 s and dissociation of 1200 s using a constant flow of 100 μl/min were applied. The CD70 target was regenerated with 4M MgCl₂ applied for 30s. The signals were double referenced against interspot and the running buffer (PBST: PBS pH 7.4 containing 0.005% […]) treated control lane A6. The 1:1 Langmuir model was used for the fitting.
A general note: SPR reads the build-up and loss of mass on a sensor chip optically.
Take B13: the Kd was 0.0081 nM. On to B14, for which the Kd is 13 nM.

For a further test the target is unchanged. The experiment in a line: crude extract HTRF. In general terms: Time-resolved FRET reads energy transfer from a long-lived donor to a nearby acceptor.
In the case of B15, the binding result is “binds”.

For the next test, the target named is T1, human CD70 expressed on Molm-13 tumor …. The experiment in a line: flow cytometry (MFI) on CD70-expressing Molm-13 N1 tumor cells. The method, then:
Binding of binding proteins of the invention to CD70 expressed on the surface of cells was analyzed by fluorescence activated cell sorting (FACS) flow cytometry. For this purpose, CD70-expressing tumor cells (Molm-13 N1) were seeded at 100,000 cells per well in a 96 well plate. DARPin® protein #2, DARPin® protein #9, DARPin® protein #24 and DARPin® protein #25 were titrated down in 1:5 dilution ratio starting at 2000 nM. Tumor cells were resuspended with diluted DARPin proteins and incubated for 60 minutes at 4° C., The assay was performed in PBS including 2% fetal bovine serum without human serum albumin (HSA). After washing twice with Phosphate Buffer saline (PBS), DARPin® protein specific tumor cell binding was detected by adding unlabeled primary anti-rabbit DARPin® antibody (anti-rabbit 1-1-1 antibody, CePower) at 2 μg/ml. An incubation step of at least 30 minutes at 4° C. followed. Afterwards, cells were washed with PBS and a secondary goat anti-rabbit antibody labelled with Alexa Fluor 488 antibody (ThermoFisher) at 2 μg/ml was added. The same incubation conditions applied. Finally, the cells were washed twice and resuspended In Cytofix fixation buffer (BD Biosciences) for 15 min at room temperature (RT). Median fluorescence intensities (MFI) of Alexa Fluor 488 DARPin® protein labelled tumor cells were measured by Attune NXT (ThermoFisher) using FlowJo software for analyses and GraphPad Prism 8 for data plotting.
(Flow cytometry measures light scatter and fluorescence of single cells or particles in a stream.)
B7 gave an EC50 of 4.9 nM. The molecule B13 registered a concentration giving a half-maximal response (EC50) of 5.2 nM. Consider B12, for which the EC50 came to 475 nM. Still for that read-out and setting: then B14, with 27 nM.

In general, Kd refers to a measure of binding affinity in units of concentration. Broadly, the EC50 is the concentration at which the effect is half-maximal. A low value points to a more potent agent.
